According to the supplement of paper PMC9732359:
± gives the uncertainty stated by the source.

Test: protein stability index of a GFP-peptide fusion (yeast GPS) (PSI 1-4); higher = more stable; sorted into four equal gates, so the index is relative within each strain
Conditions: pdr5∆
Procedure, shortened: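 Tiled 17-residue peptides from yeast proteins were fused downstream of GFP on a plasmid that also expresses Cherry, and the pooled library was carried in yeast. Mid-log cultures grown in leucine-free medium were sorted into four equal gates by GFP/Cherry fluorescence ratio. Plasmids from each gate were PCR-amplified and Illumina-sequenced, and reads were assigned to strains by barcodes. Each peptide's protein stability index is the sum, over gates, of the gate's read frequency multiplied by its gate number.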

Sequence	protein stability index
LTMANLPSWSLGKWYSK [ARP7]	3.28 ± 0.11
LTMHKIIQLILWSIHPS [SRB8]	1.53 ± 0.047
LTRNAPLDSKDENFASV [SNF2]	3.2 ± 0.079
LTVYLEPGHAADQEQAK [RPO21]	2.68 ± 0.1
LVALLSRDLWCFSINDD [SSN2]	1.71 ± 0.08
LVEEFMLLANISVARKI [DIS3]	1.84 ± 0.092
LVEYGFDPSRIKDLKQR [SMC2]	2.57 ± 0.074
LVFQLAKNFSAQKRVVS [SRB8]	2.06 ± 0.072
LVGRKPAEHPFISAARY [RPC37]	1.86 ± 0.074
LVHSEYLINGKRFKRKD [SRP68]	2.79 ± 0.065
LVQEQVREFQRRLAFLG [BRR2]	1.16 ± 0.14
LVQLSTMETKTLPEKKQ [SIR4]	2.9 ± 0.069
LVRNGPNEHPGAKYVIR [RPO21]	2.95 ± 0.1
LYAIKKVTLNKETQQYE [BRR2]	3.21 ± 0.13
LYEIILAANYLNIKPLL [SKP1]	1.33 ± 0.045
LYFPDDYPFTQLGYIEN [POP1]	3.18 ± 0.074
LYGAPGTGKTLLAKAVA [RPT2]	1.48 ± 0.12
LYGVTICYNKKTEYVLN [REC8]	1.3 ± 0.14
LYHLVIMKFQSLSDNDL [ECM29]	1.65 ± 0.25
LYKEFFNEKFPSLIQEE [NUT1]	3.19 ± 0.13
LYLQDSNDKFVHVQLLI [SRB8]	2.06 ± 0.057
LYSIREDYELSPQAVSS [PRE1]	2.83 ± 0.097
MAESTTLETIEIHPITF [RRP43]	2.58 ± 0.047
MAFNLLGLLTPEVVELC [FAS2]	1.56 ± 0.12
MAGLKDVVTREYTINLH [RPL31A]	3.06 ± 0.14

Sequence	protein stability index
MAHENVWFSHPRRYGKG [RPS29A]	2.95 ± 0.17
MAKLNECPLDPGGYFIV [RET1]	3.28 ± 0.091
MANTGCLSPGAFLSKVP [SRP14]	2.3 ± 0.091
MASTELSLKRTLTDILE [RPN4]	2.65 ± 0.17
MDALYEKIWFAISKENL [SIR3]	1.95 ± 0.052
MDCTKEEEATMTTSAVS [YIL149C/MLP2]	3.24 ± 0.065
MDFANLWVFQAFTCFCI [SRB8]	1.2 ± 0.043
MDPQTLITKANKVSYYG [RTT102]	1.73 ± 0.042
MDTIQDKLINDVTAIQT [ECM29]	3.23 ± 0.1
MEFSNLYKEFFNEKFPS [NUT1]	3.17 ± 0.15
MEGNAQPVNFNRSWDHA [RPO31]	2.31 ± 0.071
MEGQKLDDPVLNAIVSK [YJR042W/NUP85]	3.2 ± 0.2
MELSPTYQTERFTKFSD [YDL116W/NUP84]	2.74 ± 0.17
MENEFFKVQELLHSKPS [NAS6]	2.02 ± 0.082
MERLDGDYNNTVYSSEQ [SMC3]	3.18 ± 0.12
MFGAKPAGTSLFGNNAG [YGL172W/NUP49]	3.08 ± 0.067
MGDELTRSHFNALYDTL [RPN6]	2.45 ± 0.067
MGSLINGITLALIDAGI [SKI6]	2.1 ± 0.055
MGYSGWCTTCKSAENII [RET1]	2.99 ± 0.14
MIDAVFEQDSHLRYQPD [SNF6]	3.19 ± 0.065
MIFWNDICQIDTNAPVA [SRB8]	1.8 ± 0.052
MIQPPQQGQNMSEQQWR [ROX3]	2.38 ± 0.06
MIQTPRELLNPRYTYHT [YML031W/NDC1]	2.83 ± 0.081
MISEVPSVAAEYVYFFN [RPC40]	1.13 ± 0.091
MKANPALYVLRERIRKG [PRP8]	2.87 ± 0.11

Sequence	protein stability index
MKATSNTLEEFEHGRTP [FAS2]	2.56 ± 0.16
MKLNILDERFASRVALN [IRR1]	2.31 ± 0.062
MKLTDLLSLINSTHLLP [SNF12]	2.57 ± 0.04
MKNPDVEFCGYSIPHPS [RPC19]	3.11 ± 0.064
MKTNVHTQANEPNSAKK [RGR1]	3.14 ± 0.089
MKTVQSPMGAQPSYNSA [GAL11]	2.91 ± 0.1
MKYDIFAKFIHHIHHFE [IRR1]	2.54 ± 0.055
MLAAQDVAAKCKEVGIT [RPS14A]	2.38 ± 0.061
MLDKLMVTSIRSTPNYI [MED6]	2.52 ± 0.061
MLHKVLENKADPLVSLM [RPT6]	2.15 ± 0.063
MLKPNIIFQQLLFWTDP [YCG1]	2.28 ± 0.076
MLLCVSYFLQERYFDCC [PCI8]	1.26 ± 0.058
MLMPKEDRNKIHQYLFQ [RPS10A]	2.58 ± 0.057
MLQISDDNEMTRDDLLT [RRI2]	3.27 ± 0.1
MLQMKGKLLRNYTQNID [SIR2]	2.36 ± 0.11
MLSKTKVYYFQGGNNEL [RPL30]	3.17 ± 0.26
MMTGAEQDPYSNASQMG [RPB3]	2.44 ± 0.13
MNAGGRNVTIQLENADT [RPN2]	2.44 ± 0.18
MNERDWRILKEDYAIVT [PRP28]	3.16 ± 0.23
MNIPQRQFSNEEVNRCY [SNF2]	3 ± 0.14
MNLDFDIEEGPITSKSW [MCD1]	3.16 ± 0.093
MNLKKELQGYIELSVPD [SRB5]	3.26 ± 0.14
MPDMNEMMKMMQDPQMQ [SRP54]	3.45 ± 0.21
MPFNDQGIVPDIIMNPH [RET1]	2.92 ± 0.059
MPNSSLQPFYSQPTAAG [DSN1]	2.71 ± 0.067

Sequence	protein stability index
MPPKEDWEKYKAPLEDD [RPT1]	3.29 ± 0.21
MPVAPTMEVKSFPILDQ [YMR129W/POM152]	1.29 ± 0.11
MQRQQQGISGSQQNIVP [SNF2]	3.14 ± 0.05
MRNFSKQNQDSKHNERN [YDL088C/ASM4]	3.32 ± 0.14
MRQQSKELQQLQKQILT [SMC1]	3.05 ± 0.074
MSAQKAPKWYPSEDVAA [RPL6A]	2.35 ± 0.13
MSDTEAPVEVQEDFEVV [RPS5]	3.24 ± 0.15
MSETLPRSDDLEATWNF [CDC53]	3.39 ± 0.15
MSEVITITKRNGAFQNS [RRP4]	2.31 ± 0.076
MSFSSLYKTFFKRNAVF [QCR9]	1.33 ± 0.053
MSGGGNHVAKGLMKLGT [SMC4]	3.56 ± 0.3
MSISLESSKALADSLDR [DIS3]	2.8 ± 0.074
MSKVMKPSNGKGSRKSS [SNF12]	3.27 ± 0.11
MSLKDKLLIQIDELSNG [SMC1]	2.34 ± 0.11
MSMSSTVIKFRAGVCEY [RPN13]	2.58 ± 0.18
MSPLECRNILGVTSLIK [RPP1]	1.96 ± 0.054
MSPNHGTFGGDGMYSES [FAS2]	2.34 ± 0.064
MSSQISSLIPHCITSIT [MTR3]	2.08 ± 0.061
MTDRYSFSLTTFSPSGK [PRE8]	3.16 ± 0.25
MTKTITVAHIQYDFKAV [RPN14]	3.09 ± 0.095
MTMASKSLEVVNADTVG [NSL1]	2.82 ± 0.075
MTMNGIPVKLLNEAQGH [SMD3]	3.39 ± 0.16
MTRILPQQSRYISFIKD [RPN2]	2.6 ± 0.057
MTSIGTGYDLSNSVFSP [PRE10]	2.91 ± 0.11
MVKLIVMLCTLTGYQNN [YJL039C/NUP192]	1.52 ± 0.075
